Results as given in PMC4077741, “Miz-1 Activates Gene Expression via a Novel Consensus DNA Binding Motif”.

How the values were obtained:
Cux1 = Cux1 (UniProt P39880); assay: EMSA; details: EMSA: ZBA (10 mM Tris pH 7.5, 90 mM KCl, 1 mM MgCl2, 90 uM ZnCl2, 5 mM DTT) with 100 ng/ul poly(dI-dC), 15 min, room temperature, 5% acrylamide gel in 0.5X …
[1] = target: T1, MBP-Miz-1-ZF (Homo sapiens) (UniProt Q13105); assay: competition; details: EMSA: ZBA (10 mM Tris pH 7.5, 90 mM KCl, 1 mM MgCl2, 90 uM ZnCl2, 5 mM DTT) with 100 ng/ul poly(dI-dC), 15 min, room temperature, 5% acrylamide gel in 0.5X …
T1 sequence (Q13105 269-793, looked up): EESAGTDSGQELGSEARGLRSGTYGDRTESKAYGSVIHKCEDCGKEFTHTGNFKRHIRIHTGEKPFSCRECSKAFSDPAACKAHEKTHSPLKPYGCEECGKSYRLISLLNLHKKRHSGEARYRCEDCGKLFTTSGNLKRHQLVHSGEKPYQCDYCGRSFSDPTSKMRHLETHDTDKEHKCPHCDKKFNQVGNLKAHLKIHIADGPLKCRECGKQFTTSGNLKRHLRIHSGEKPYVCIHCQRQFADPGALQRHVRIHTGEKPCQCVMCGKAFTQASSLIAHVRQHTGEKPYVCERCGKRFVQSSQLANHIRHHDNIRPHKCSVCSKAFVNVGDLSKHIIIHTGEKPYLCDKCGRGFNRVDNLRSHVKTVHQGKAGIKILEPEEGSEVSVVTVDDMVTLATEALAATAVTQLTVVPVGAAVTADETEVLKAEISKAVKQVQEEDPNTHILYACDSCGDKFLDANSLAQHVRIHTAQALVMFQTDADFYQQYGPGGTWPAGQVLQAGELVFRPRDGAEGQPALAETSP

MBP-Miz-1-FL [2] = target: T2, MBP-Miz-1-FL (Homo sapiens, UniProt Q13105 1-803); assay: competition; 200-fold unlabeled P2 vs labeled P1; EMSA: ZBA (10 mM Tris pH 7.5, 90 mM KCl, 1 mM MgCl2, 90 uM ZnCl2, 5 mM DTT) with 100 ng/ul poly(dI-dC), 15 min, room temperature; 5% acrylamide gel in 0.5X Tris-borate at 4 C; details: protein: recombinant; tags: N-terminal MBP; label: 5' IRDye 700 (labeled version); blunt
T2 sequence: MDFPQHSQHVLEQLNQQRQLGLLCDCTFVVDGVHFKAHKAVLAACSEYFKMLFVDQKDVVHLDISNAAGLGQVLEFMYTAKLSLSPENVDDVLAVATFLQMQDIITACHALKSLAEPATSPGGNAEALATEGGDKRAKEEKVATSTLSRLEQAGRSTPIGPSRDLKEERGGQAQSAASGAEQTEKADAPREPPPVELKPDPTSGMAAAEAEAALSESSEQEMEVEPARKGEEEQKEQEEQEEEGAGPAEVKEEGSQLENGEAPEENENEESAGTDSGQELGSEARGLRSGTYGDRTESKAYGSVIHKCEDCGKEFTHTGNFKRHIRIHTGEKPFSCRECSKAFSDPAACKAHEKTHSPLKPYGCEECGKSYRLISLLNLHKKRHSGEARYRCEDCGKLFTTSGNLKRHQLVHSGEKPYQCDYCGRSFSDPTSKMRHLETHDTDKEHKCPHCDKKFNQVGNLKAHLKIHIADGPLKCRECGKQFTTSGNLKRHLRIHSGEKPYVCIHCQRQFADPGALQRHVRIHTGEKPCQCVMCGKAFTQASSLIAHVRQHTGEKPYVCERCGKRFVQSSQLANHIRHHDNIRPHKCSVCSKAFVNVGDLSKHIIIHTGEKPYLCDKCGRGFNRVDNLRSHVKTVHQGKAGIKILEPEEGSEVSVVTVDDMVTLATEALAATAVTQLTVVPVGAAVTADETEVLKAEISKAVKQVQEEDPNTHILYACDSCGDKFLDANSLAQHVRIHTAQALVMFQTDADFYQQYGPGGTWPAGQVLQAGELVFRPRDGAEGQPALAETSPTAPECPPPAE

MBP-Miz-1-FL [3] = target: T2, MBP-Miz-1-FL; assay: competition; 200-fold unlabeled P2 vs labeled P2; EMSA: ZBA (10 mM Tris pH 7.5, 90 mM KCl, 1 mM MgCl2, 90 uM ZnCl2, 5 mM DTT) with 100 ng/ul poly(dI-dC), 15 min, room temperature; 5% acrylamide gel in 0.5X Tris-borate at 4 C; details: protein: recombinant; tags: N-terminal MBP; label: 5' IRDye 700 (labeled version); blunt
[4] = target: T3, Miz-1 (Figure 7 preparation) (UniProt Q13105 1-803); assay: EMSA; EMSA: ZBA (10 mM Tris pH 7.5, 90 mM KCl, 1 mM MgCl2, 90 uM ZnCl2, 5 mM DTT) with 100 ng/ul poly(dI-dC), 15 min, room temperature; 5% acrylamide gel in 0.5X Tris-borate at 4 C; details: protein: ivt; label: 5' IRDye 700 (labeled version); blunt
T3 sequence: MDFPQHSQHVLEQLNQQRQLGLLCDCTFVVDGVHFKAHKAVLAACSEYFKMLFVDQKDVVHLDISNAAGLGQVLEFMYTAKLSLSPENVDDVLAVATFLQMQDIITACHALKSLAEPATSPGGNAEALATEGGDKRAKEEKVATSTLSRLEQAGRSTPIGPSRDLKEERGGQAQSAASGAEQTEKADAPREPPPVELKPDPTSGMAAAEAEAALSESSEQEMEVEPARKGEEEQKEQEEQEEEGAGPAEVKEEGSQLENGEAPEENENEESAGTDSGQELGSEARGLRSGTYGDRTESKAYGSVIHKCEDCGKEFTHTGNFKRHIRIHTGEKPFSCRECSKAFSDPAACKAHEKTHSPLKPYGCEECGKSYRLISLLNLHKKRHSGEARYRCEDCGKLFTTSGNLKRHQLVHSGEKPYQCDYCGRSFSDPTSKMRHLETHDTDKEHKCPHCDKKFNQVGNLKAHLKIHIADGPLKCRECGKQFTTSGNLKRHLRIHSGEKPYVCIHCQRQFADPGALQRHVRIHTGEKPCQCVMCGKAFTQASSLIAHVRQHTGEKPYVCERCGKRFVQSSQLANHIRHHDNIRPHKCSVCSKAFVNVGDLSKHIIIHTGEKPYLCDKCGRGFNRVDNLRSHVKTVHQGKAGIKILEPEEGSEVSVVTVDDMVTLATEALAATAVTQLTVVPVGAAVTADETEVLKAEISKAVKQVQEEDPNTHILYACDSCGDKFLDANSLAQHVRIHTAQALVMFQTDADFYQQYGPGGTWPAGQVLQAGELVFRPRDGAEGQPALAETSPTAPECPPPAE

MBP-Miz-1-FL [5] = target: T2, MBP-Miz-1-FL; assay: competition; 200-fold unlabeled P1 vs labeled P1; EMSA: ZBA (10 mM Tris pH 7.5, 90 mM KCl, 1 mM MgCl2, 90 uM ZnCl2, 5 mM DTT) with 100 ng/ul poly(dI-dC), 15 min, room temperature; 5% acrylamide gel in 0.5X Tris-borate at 4 C; details: protein: recombinant; tags: N-terminal MBP; label: 5' IRDye 700 (labeled version); blunt
MBP-Miz-1-FL [6] = target: T2, MBP-Miz-1-FL; assay: competition; 200-fold unlabeled P1 vs labeled P2; EMSA: ZBA (10 mM Tris pH 7.5, 90 mM KCl, 1 mM MgCl2, 90 uM ZnCl2, 5 mM DTT) with 100 ng/ul poly(dI-dC), 15 min, room temperature; 5% acrylamide gel in 0.5X Tris-borate at 4 C; details: protein: recombinant; tags: N-terminal MBP; label: 5' IRDye 700 (labeled version); blunt
MBP-Miz-1-FL [7] = target: T2, MBP-Miz-1-FL; assay: EMSA; EMSA: ZBA (10 mM Tris pH 7.5, 90 mM KCl, 1 mM MgCl2, 90 uM ZnCl2, 5 mM DTT) with 100 ng/ul poly(dI-dC), 15 min, room temperature; 5% acrylamide gel in 0.5X Tris-borate at 4 C; details: protein: recombinant; tags: N-terminal MBP; label: 5' IRDye 700; blunt
Miz-1 untagged = target: T4, Miz-1 untagged (Homo sapiens, UniProt Q13105 1-803); assay: as above; details: protein: ivt; tags: none; label: 5' IRDye 700; blunt
T4 sequence: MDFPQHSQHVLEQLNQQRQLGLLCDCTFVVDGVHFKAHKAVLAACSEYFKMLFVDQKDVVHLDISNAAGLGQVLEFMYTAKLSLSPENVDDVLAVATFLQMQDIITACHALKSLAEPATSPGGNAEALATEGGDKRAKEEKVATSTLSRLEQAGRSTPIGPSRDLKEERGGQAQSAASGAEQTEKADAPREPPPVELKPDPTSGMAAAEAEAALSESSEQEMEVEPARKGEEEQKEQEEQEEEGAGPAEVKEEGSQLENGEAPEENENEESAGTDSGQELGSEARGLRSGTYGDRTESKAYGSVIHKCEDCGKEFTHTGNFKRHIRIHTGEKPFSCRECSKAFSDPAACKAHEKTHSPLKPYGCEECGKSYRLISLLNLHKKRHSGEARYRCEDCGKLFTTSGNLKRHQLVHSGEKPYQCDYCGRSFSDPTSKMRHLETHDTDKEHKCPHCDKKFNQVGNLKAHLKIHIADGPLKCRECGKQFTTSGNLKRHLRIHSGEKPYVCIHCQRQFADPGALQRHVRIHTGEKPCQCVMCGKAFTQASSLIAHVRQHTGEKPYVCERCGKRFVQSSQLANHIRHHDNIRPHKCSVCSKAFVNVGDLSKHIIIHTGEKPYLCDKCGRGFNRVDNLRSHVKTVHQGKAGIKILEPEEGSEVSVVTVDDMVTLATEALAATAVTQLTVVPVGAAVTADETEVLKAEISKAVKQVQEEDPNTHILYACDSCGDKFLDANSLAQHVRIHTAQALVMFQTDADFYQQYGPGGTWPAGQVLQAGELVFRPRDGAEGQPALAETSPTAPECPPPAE

[8] = target: T3, Miz-1 (Figure 7 preparation); assay: as above; details: protein: ivt; label: 5' IRDye 700; blunt
MBP-Miz-1-FL [9] = target: T2, MBP-Miz-1-FL; assay: competition; unlabeled P1m3 vs labeled P1 or P2; range over both proteins and probes; EMSA: ZBA (10 mM Tris pH 7.5, 90 mM KCl, 1 mM MgCl2, 90 uM ZnCl2, 5 mM DTT) with 100 ng/ul poly(dI-dC), 15 min, room temperature; 5% acrylamide gel in 0.5X Tris-borate at 4 C; details: protein: recombinant; tags: N-terminal MBP; blunt

Cux1, sequence (P39880 whole entry): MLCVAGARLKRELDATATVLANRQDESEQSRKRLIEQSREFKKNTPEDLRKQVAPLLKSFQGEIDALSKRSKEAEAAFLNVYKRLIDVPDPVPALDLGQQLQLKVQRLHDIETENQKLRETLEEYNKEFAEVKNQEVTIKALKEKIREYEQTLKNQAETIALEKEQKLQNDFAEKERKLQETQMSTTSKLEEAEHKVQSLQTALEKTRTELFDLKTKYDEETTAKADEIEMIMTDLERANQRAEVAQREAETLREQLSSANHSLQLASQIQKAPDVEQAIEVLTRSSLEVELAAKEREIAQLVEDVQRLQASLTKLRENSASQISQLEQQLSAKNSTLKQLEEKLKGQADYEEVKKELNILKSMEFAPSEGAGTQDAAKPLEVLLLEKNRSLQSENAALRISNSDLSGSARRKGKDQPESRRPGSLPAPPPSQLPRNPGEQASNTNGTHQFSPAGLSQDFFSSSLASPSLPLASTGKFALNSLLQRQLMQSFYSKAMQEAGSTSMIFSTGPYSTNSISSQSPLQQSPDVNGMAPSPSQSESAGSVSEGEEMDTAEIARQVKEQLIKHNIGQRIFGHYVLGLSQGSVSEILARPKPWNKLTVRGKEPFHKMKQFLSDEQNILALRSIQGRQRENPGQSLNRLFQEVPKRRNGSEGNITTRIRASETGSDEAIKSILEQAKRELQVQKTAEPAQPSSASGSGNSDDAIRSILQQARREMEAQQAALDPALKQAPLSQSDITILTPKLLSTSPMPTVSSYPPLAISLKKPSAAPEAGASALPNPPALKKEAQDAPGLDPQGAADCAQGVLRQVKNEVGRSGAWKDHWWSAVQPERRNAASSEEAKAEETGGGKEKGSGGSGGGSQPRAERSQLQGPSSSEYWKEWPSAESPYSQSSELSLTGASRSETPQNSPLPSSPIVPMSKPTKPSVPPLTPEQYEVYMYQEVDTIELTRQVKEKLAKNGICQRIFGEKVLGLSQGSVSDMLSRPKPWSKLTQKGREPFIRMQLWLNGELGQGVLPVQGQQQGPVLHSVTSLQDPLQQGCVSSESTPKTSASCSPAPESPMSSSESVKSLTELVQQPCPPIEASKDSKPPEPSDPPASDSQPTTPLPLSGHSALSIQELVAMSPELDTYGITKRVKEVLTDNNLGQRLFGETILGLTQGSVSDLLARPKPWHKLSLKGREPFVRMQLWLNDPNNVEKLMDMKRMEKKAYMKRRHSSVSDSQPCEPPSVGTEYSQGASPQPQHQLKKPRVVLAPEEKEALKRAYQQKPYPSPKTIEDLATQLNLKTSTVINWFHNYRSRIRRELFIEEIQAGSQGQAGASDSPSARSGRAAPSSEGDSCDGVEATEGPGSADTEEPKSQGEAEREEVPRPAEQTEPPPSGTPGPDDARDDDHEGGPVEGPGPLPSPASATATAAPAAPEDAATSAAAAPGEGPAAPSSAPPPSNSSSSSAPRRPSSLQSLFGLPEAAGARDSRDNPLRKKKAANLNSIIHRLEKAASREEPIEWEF

Q: Which binding signal (fold bound intensity P2 over P1) (Cux1) does the source give for “AGGGTTGGTATCGATTATCGAGTT (double strand) [P2]” here?
A: Its binding signal (fold bound intensity P2 over P1) is 2.

Q: With “GAATTAGGAGTAAACCATCGAGGT (double strand) [P1m1]” as the molecule, how does the binding signal (% reduction of bound labeled P1) ([1]; unlabeled P1m1 vs labeled P1, competition nearly eliminated) read?
A: The binding signal (% reduction of bound labeled P1) was 7.

Q: For “GAATTATCGGTAATCCATCGAGGT (double strand) [P1]”, which binding signal (Cux1; scale: bound intensity relative to P2) is on record?
A: The binding signal was 0.5.

Q: What about the binding signal (% reduction of bound labeled P1) ([1]; 200-fold unlabeled P1 vs labeled P1) of the same molecule?
A: Its binding signal (% reduction of bound labeled P1) is 87.

Q: For “GAATTATCCGTAATGCATCGAGGT (double strand) [P1m2]”, which binding signal (% reduction of bound labeled P1) ([1]; unlabeled P1m2 vs labeled P1, competition nearly eliminated) is on record?
A: The binding signal (% reduction of bound labeled P1) was 24.

B1: P2 (dsDNA)
DNA 1: AGGGTTGGTATCGATTATCGAGTT
DNA 2: AACTCGATAATCGATACCAACCCT
Q: Which results are given for B1?
A: binding signal (MBP-Miz-1-FL [2]): 2 fold reduction of bound labeled P1; binding signal (MBP-Miz-1-FL [3]): 6.4 fold reduction of bound labeled P2

B2: P1 (dsDNA)
DNA 1: GAATTATCGGTAATCCATCGAGGT
DNA 2: ACCTCGATGGATTACCGATAATTC
Q: What does the source list for B2?
A: binding signal [4]: ~2.5 fold bound intensity P1 over P2; binding signal (MBP-Miz-1-FL [5]): 5.3 fold reduction of bound labeled P1; binding signal (MBP-Miz-1-FL [6]): 4.8 fold reduction of bound labeled P2

B3: CP (dsDNA)
DNA 1: CAAAAGTGCGGCTGCGTGGTGCAC
DNA 2: GTGCACCACGCAGCCGCACTTTTG
Q: Does B3 bind (MBP-Miz-1-FL [7])?
A: Result: no binding

Q: Does B3 bind (Miz-1 untagged)?
A: Result: no binding

Q: Does B3 bind [8]?
A: Result: no binding

B4: P1m3 (dsDNA)
DNA 1: ACCCTTATATCGGTAATCGGTAAG
DNA 2: CTTACCGATTACCGATATAAGGGT
Q: Does B4 bind (MBP-Miz-1-FL [9])?
A: Result: binds
